Data as given in patent US20260201022A1.

Target: BauA on the surface of the strains of the A. baumannii diversity set (100 strains, MRSN)
Test: native ELISA on the diversity set of 100 A. baumannii strains

B1: αBauA mouse monoclonal antibody against BauA of Acinetobacter baumannii (hybridoma subclone 12C1) (antibody, V domains shown)
VH: EVQLQESGADLVRPGSSVKISCKASGYAFSNYWMHWMKQRPGQGLEWIGQIYPGDGDTNYNGKFKGKATLTADKSSSSAYMQLSSLISEDSAVYFCARGDFYYGSPFAYWGQGTLVTVSA
VL: DIVMTQAAPSVPVTPGESVSISCRSSKSLLHSNGNTYLYWFLQRPGQSPQLLIYRMSNLASGVPDRFSGSGSGTAFTLRISRVEAEDVGVYYCMQHLEYPLTFGAGTKLELK
Binder B1 has a percent of strains recognized of over 68%.
